Measurements published in the MegaScale stability set (Tsuboyama et al. 2023).

B1: EHEE_rd4_0726 (parent)
chain: DIEITTNGEEDAKRVIKELQKRNLEYHIEVHGNQWVIKVR

Variants of: B1
Assay: folding stability dG (cDNA display proteolysis); higher = more stable
Conditions: PBS, room temperature

Variant	folding stability dG [kcal/mol]
N7D	2.4
N7C	2.87
N7V	2.29
N7H	2.42
N7P	1.36
N7R	2.25
N7I	2.43
N7Q	2.4
N7S	2.26
N7Y	3.03
N7G	1.78
N7A	2.19
R22G	1.45
R22S	1.76
R22M	2.66
R22E	1.49
R22V	1.45
R22F	2.39
R22C	2.62
R22P	0.049
R22H	2.33
R22W	2.65
R22D	1.33
R22K	2.17

Variant	folding stability dG [kcal/mol]
V15A	1.38
V15C	2.29
V15E	0.404
V15L	2.2
V15N	0.1
V15M	1.79
E3K	2.18
E3P	0.973
E3V	3.33
E3H	2.31
E3S	2.5
E3I	3.45
E3R	2.34
E3L	2.76
E3A	2.16
E3W	3.35
E3M	2.74
R40C	2.97
R40E	1.73
R40L	2.7
R40Y	2.57
R40F	2.73
R40N	1.97
R40K	2.63

Variant	folding stability dG [kcal/mol]
R40A	2.12
K17L	2.74
K17W	2.36
K17S	2.31
K17F	2.5
K17T	2.15
E10V	2.02
E10H	2.02
E10A	2.4
E10K	2.14
E10Y	2.07
E10T	1.93
E10M	2.05
E10G	1.77
E10L	2.15
H27R	2.59
H27C	2.6
H27E	2.66
H27Y	2.73
H27N	2.17
H27D	2.48
H27A	2.34
H27G	1.59
K13V	2.12

Variant	folding stability dG [kcal/mol]
K13E	1.97
K13M	2.96
K13S	1.93
K13A	2.4
K13Q	2.52
K13D	1.72
K13H	2.24
K13T	1.96
K13G	1.76
K13L	2.76
K13F	2.58
E25T	2.66
E25I	2.66
E25S	2.67
E25K	2.76
E25L	2.6
W35M	1.44
W35A	0.294
W35K	0.49
W35H	0.787
W35Y	1.85
W35G	-0.933
W35I	2.06
W35V	1.67

Variant	folding stability dG [kcal/mol]
N23G	3.26
N23C	1.79
N23Y	1.67
N23E	1.66
N23L	1.77
N23F	1.92
N23H	2.4
N23T	1.2
N23Q	2.18
N23D	1.72
D1C	2.75
D1W	4.08
D1I	2.87
D1F	3.31
D1H	2.48
D1N	2.37
D1T	2.63
V36T	1.77
V36C	1.43
V36I	2.7
V36Q	0.978
V36F	1.85
V36H	1.47
V36W	1.16

Variant	folding stability dG [kcal/mol]
V36L	1.93
V36N	0.793
I16Q	0.929
I16V	1.94
I16R	0.31
I16K	0.043
I16M	2.04
I16E	1.34
I16L	1.83
Q34N	2.21
Q34L	2.65
Q34H	2.36
Q34F	2.65
Q34I	2.87
Q34S	2.1
Q34P	-0.908
Q34T	2.58
Q34E	1.85
D11T	2.05
D11F	2.31
D11M	2.59
D11Q	2.63
D11K	1.78
D11E	2.95

Variant	folding stability dG [kcal/mol]
D11A	2.73
D11S	2.3
D11L	2.12
D11W	2.62
D11Y	2.21
R14Q	2
R14D	1.59
R14C	2.57
R14T	1.84
R14A	2.33
R14S	1.82
R14W	2.85
R14L	2.3
R14P	1.04
R14K	2.43
I2W	3.69
I2Q	1.69
I2D	1.41
I2N	1.49
I2F	3.22
I2E	1.54
I2V	2.15
K38F	2.63
